# Source: patent publication US20080221021A1 (published 2008)
# Where no end group is shown, it is not given here.
# T1: rat CRFBP C-terminally fused with a His6 sequence (rat, UniProt P24388 25-322)
# T1 chain: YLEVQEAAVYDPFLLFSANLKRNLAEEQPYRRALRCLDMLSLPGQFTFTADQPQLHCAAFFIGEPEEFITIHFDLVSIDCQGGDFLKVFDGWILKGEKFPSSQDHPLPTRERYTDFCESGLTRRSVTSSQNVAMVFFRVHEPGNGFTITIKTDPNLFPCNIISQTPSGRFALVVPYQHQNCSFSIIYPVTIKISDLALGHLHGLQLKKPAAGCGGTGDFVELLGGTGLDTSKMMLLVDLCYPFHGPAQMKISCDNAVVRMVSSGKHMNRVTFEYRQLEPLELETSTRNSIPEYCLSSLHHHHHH
# B1: human/rat corticotropin-releasing factor (peptide)
# peptide: SEEPPISLDLTFHLLREVLEMARAEQLAQQAHSNRKLMEII
# modifications: not fully specified
# Target: T1, rat CRFBP C-terminally fused with a …
# Assay: competition binding
binder,measurement,value
B1,IC50,0.54 nM
